{"source": "patent US20250282880A1", "about": "(NUMAB THERAPEUTICS, published 2025)", "binders": {"B1": {"name": "PRO1899 (scFv)", "scFv": "DIQMTQSPSSLSASVGDRVTITCQASEDIESYLAWYQQKPGKAPKLLIYRASTLAYGVPSRFSGSGSGTDFTLTISSLQPEDFATYYCLGSSYSTGSNIFGTGTKVTVLGGGGGSGGGGSGGGGSGGGGSEVQLVESGGGRVQPGGSLRLSCAASGFSSSSAHYMCWVRQAPGKGLEWIGCIYAGSRGSTYYASWAKGRFTISKASSTTVYLQMNSLRAEDTATYYCARAAFVNRGVSWIWPYYFSLWGQGTQVTVSS", "notes": "optimized variant of PRO1517 (VH L12R, V103T, L144Q and RDNSKN changed to KASST, AHo 82-87); scFv VL-linker-VH; also called 44-34-C10-sc09"}, "B2": {"name": "dupilumab (antibody, V domains shown)", "VH": "EVQLVESGGGLEQPGGSLRLSCAGSGFTFRDYAMTWVRQAPGKGLEWVSSISGSGGNTYYADSVKGRFTISRDNSKNTLYLQMNSLRAEDTAVYYCAKDRLSITIRPRYYGLDVWGQGTTVTVSS", "VL": "DIVMTQSPLSLPVTPGEPASISCRSSQSLLYSIGYNYLDWYLQKSGQSPQLLIYLGSNRASGVPDRFSGSGSGTDFTLKISRVEAEDVGFYYCMQALQTPYTFGQGTKLEIKR"}}, "key": {"[1]": {"target": "IL-4R on HEK-Blue cells (human, UniProt P24394 26-825)", "test": "cell-based or functional assay"}, "[2]": {"target": "T1, cynomolgus IL-4R-Fc (cynomolgus monkey (Macaca fascicularis), UniProt A0A2K5V580 33-239)", "T1 construct": "also called cynomolgus IL-4R (capture setup); not shown: Fc part", "test": "SPR, capture setup: cynomolgus IL-4R-Fc captured, scFv as analyte"}, "[3]": {"target": "T2, Biotinylated IL-4R (human, UniProt P24394 26-232, limits assumed, biotinylated)", "T2 construct": "also called human IL-4R; hIL-4R", "test": "competitive ELISA: IL-4 coated, biotinylated IL-4R preincubated with scFv", "excerpt": "Bound biotinylated IL-4R was then detected using streptavidin-HRP."}, "[4]": {"target": "T3, Human IL-4R-Fc (human, UniProt P24394 26-232)", "T3 construct": "not shown: Fc part (captured via anti-human IgG-Fc)", "test": "SPR (Biacore T200), human IL-4R-Fc captured, scFv as analyte 0.12 to 90 nM, 1:1 model", "method": "Affinity of the 16 humanized scFvs (derived from 5 rabbit monoclonal antibodies) to human IL-4R was determined by SPR analysis on a T200 device (Biacore, GE Healthcare). Human IL-4R-Fc was captured via an anti-human IgG-Fc coupled to a carboxylmethylated dextran surface and the scFvs were injected as analyte. After each analyte injection cycle the sensor chip was regenerated and new antigen was captured. The scFvs were measured using a dose response multi-cycle kinetic assay with seven analyte concentrations ranging from 0.12 to 90 nM diluted in running buffer. Obtained sensorgrams were fitted using a 1:1 binding model.\nThe scFvs were measured using a dose response multi-cycle kinetic assay with seven analyte concentrations ranging from 0.12 to 90 nM diluted in running buffer. Obtained sensorgrams were fitted using a 1:1 binding model."}, "[5]": {"target": "T2, Biotinylated IL-4R", "test": "competitive ELISA: IL-4 coated, biotinylated IL-4R preincubated with antibody (plate of PRO1898)"}, "[6]": {"target": "T2, Biotinylated IL-4R", "test": "competitive ELISA: IL-4 coated, biotinylated IL-4R preincubated with antibody (plate of PRO1899)"}, "[7]": {"target": "T2, Biotinylated IL-4R", "test": "competitive ELISA: human IL-4 coated on the plate, biotinylated IL-4R preincubated with the antagonist, bound IL-4R detected with streptavidin-HRP; blocked ligand human IL-4"}, "[8]": {"target": "T2, Biotinylated IL-4R", "test": "competitive ELISA: human IL-4 coated on the plate, biotinylated IL-4R preincubated with the antagonist, bound IL-4R detected with streptavidin-HRP; blocked ligand human IL-4", "remark": "listed apart in the source"}, "[9]": {"target": "T2, Biotinylated IL-4R", "test": "competitive ELISA: human IL-4 coated on the plate, biotinylated IL-4R preincubated with the antagonist, bound IL-4R detected with streptavidin-HRP; blocked ligand human IL-4", "remark": "listed apart in the source"}, "[10]": {"target": "T2, Biotinylated IL-4R", "test": "competitive ELISA: human IL-4 coated on the plate, biotinylated IL-4R preincubated with the antagonist, bound IL-4R detected with streptavidin-HRP; blocked ligand human IL-4", "remark": "listed apart in the source"}, "[11]": {"target": "T2, Biotinylated IL-4R", "test": "competitive ELISA: human IL-4 coated on the plate, biotinylated IL-4R preincubated with the antagonist, bound IL-4R detected with streptavidin-HRP; blocked ligand human IL-4 [continued) E]"}}, "data": [{"binder": "B1", "values": [{"measurement": "IC50, neutralization of hIL-4 induced signaling in reporter gene assay", "setting": "[1]", "result": 0.71, "unit": "ng/mL"}, {"measurement": "IC50, neutralization of hIL-13 induced signaling in reporter gene assay", "setting": "[1]", "result": 0.56, "unit": "ng/mL"}, {"measurement": "rel. IC50 (IC50, dupilumab/IC50, test sample), hIL-4 induced signaling", "setting": "[1]", "result": 1.61, "unit": "ratio"}, {"measurement": "rel. IC50 (IC50, dupilumab/IC50, test sample), hIL-13 induced signaling", "setting": "[1]", "result": 1.8, "unit": "ratio"}, {"measurement": "Kd", "setting": "[2]", "result": 12, "unit": "pM"}, {"measurement": "koff", "setting": "[2]", "result": 0.00014, "unit": "s⁻¹"}, {"measurement": "kon", "setting": "[2]", "result": "1.1e+07", "unit": "M⁻¹ s⁻¹"}, {"measurement": "IC50", "setting": "[3]", "result": 2.98, "unit": "ng/mL"}, {"measurement": "rel. IC50 (IC50, dupilumab/IC50, test sample)", "setting": "[3]", "result": 2.07, "unit": "ratio"}, {"measurement": "Kd", "setting": "[4]", "result": 6.92, "unit": "pM"}, {"measurement": "koff", "setting": "[4]", "result": "2.04e-05", "unit": "s⁻¹"}, {"measurement": "kon", "setting": "[4]", "result": "2.95e+06", "unit": "M⁻¹ s⁻¹"}]}, {"binder": "B2", "values": [{"measurement": "IC50, neutralization of hIL-4 induced signaling in reporter gene assay", "setting": "[1]", "result": 1.15, "unit": "ng/mL"}, {"measurement": "IC50, neutralization of hIL-13 induced signaling in reporter gene assay", "setting": "[1]", "result": 1, "unit": "ng/mL"}, {"measurement": "rel. IC50 (IC50, dupilumab/IC50, test sample), hIL-4 induced signaling", "setting": "[1]", "result": 1, "unit": "ratio"}, {"measurement": "rel. IC50 (IC50, dupilumab/IC50, test sample), hIL-13 induced signaling", "setting": "[1]", "result": 1, "unit": "ratio"}, {"measurement": "IC50", "setting": "[5]", "result": 6.78, "unit": "ng/mL"}, {"measurement": "rel. IC50 (IC50, dupilumab/IC50, test sample)", "setting": "[5]", "result": 1, "unit": "ratio"}, {"measurement": "IC50", "setting": "[6]", "result": 6.18, "unit": "ng/mL"}, {"measurement": "rel. IC50 (IC50, dupilumab/IC50, test sample)", "setting": "[6]", "result": 1, "unit": "ratio"}, {"measurement": "IC50 (read off the curve)", "setting": "[7]", "result": "~2", "unit": "ng/mL"}, {"measurement": "IC50 (read off the curve)", "setting": "[8]", "result": "~2", "unit": "ng/mL"}, {"measurement": "IC50 (read off the curve)", "setting": "[9]", "result": "~2", "unit": "ng/mL"}, {"measurement": "IC50 (read off the curve)", "setting": "[10]", "result": "~3", "unit": "ng/mL"}, {"measurement": "IC50 (read off the curve)", "setting": "[11]", "result": "~2", "unit": "ng/mL"}]}]}
